In patent publication US9186389B2, “Nanoparticles containing pH-responsive peptide” (Taiho Pharmaceutical Co., Ltd., priority 2011, dated 2015):
* marks the point of attachment. Stearoyl = CCCCCCCCCCCCCCCCCC(=O)*

Assay: CD spectra under different pH conditions with predicted secondary structure
Type: physicochemical
Settings: peptide concentration 20 μM, PBS (−), pH 7.4, 6.5, 6.0, 5.5
Method: The peptide obtained in Production Example 1 alone and liposome 1 obtained as in Example 1 (each having a peptide concentration of 20 μM) were suspended in PBS (−) having different pH, and CD (circular dichroism) spectra were recorded on a J-720WI spectropolarimeter (produced by JASCO Corporation). Then, analysis software (see JWSSE-480; Molecular Membrane Biology, July, August 2007; 24 (4): 282-293) was used to predict the composition of the secondary structure in the spectra.
In FIG. 9 below, the “α-helix” represents an a helix structure; the “coil” represents a random coil structure (not forming a clear secondary structure); and “turn” represents a bending structure.

## C17H35—C(O)-GGGGHGAHEHAGHEHAAGEHHAHE-NH2 (Stearoyl-GGGGHGAHEHAGHEHAAGEHHAHE-NH2; SMILES CCCCCCCCCCCCCCCCCC(=O)NCC(=O)NCC(=O)NCC(=O)NCC(=O)N[C@@H](Cc1c[nH]cn1)C(=O)NCC(=O)N[C@@H](C)C(=O)N[C@@H](Cc1c[nH]cn1)C(=O)N[C@@H](CCC(=O)O)C(=O)N[C@@H](Cc1c[nH]cn1)C(=O)N[C@@H](C)C(=O)NCC(=O)N[C@@H](Cc1c[nH]cn1)C(=O)N[C@@H](CCC(=O)O)C(=O)N[C@@H](Cc1c[nH]cn1)C(=O)N[C@@H](C)C(=O)N[C@@H](C)C(=O)NCC(=O)N[C@@H](CCC(=O)O)C(=O)N[C@@H](Cc1c[nH]cn1)C(=O)N[C@@H](Cc1c[nH]cn1)C(=O)N[C@@H](C)C(=O)N[C@@H](Cc1c[nH]cn1)C(=O)N[C@@H](CCC(=O)O)C(N)=O) [Compound 1]
  structural change with pH (CD spectrum): a structural change does not occur unless the pH is lowered to 6.0
